Reference: publication PMC5552345 (PLoS Pathogens, 2017)
Substitutions are numbered along the chain they refer to. Numbers in names are those of the source.

T1: (NANP)6 peptide (Plasmodium falciparum CSP repeat, …)
T1 construct: printed as (NANP)6, written out here; a short segment of the antigenic NANP-repeat region of P. falciparum CSP; also called synthetic peptide antigen (NANP)6; source: synthetic peptide
T1 chain: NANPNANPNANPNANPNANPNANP

T2: (NANP)9 peptide (Plasmodium falciparum CSP repeat, …)
T2 construct: printed as (NANP)9, written out here; NANP repeat of P. falciparum CSP
T2 chain: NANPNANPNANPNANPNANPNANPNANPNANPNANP

B1: 2A10 antigen-binding fragment (FAB) (Fab, V domains shown)
VH: QIQLVQSGPELKKPGETVKISCKASGYTFTNYGINWVKQAPGKGLKWMGWINTITEEPTFAEEFTGRFAFSLETSASTAYLQINNLKNEDTATYFCARGSEFGRLVYWGQGASVTVSS
VL: DIQMTQTTSSLSASLGDRVTISCSASQGISNYLNWYQQKPDGTVKLLIFYTSTLYSGVPSRFSGSGSGTDYSLTISNLEPEDIATYYCQQYSRFPYVFGGGTKLEIK
notes: heavy chain part of the 2A10 FAB; as the heavy chain of m1; light chain of the 2A10 FAB; as the light chain of m1; also called 2A10 FAB; 2A10 FAB fragment; source: purified
B2: hybrid antibody mLC + gHC with heavy chain N59I (antibody, V domains shown)
VH: B1 VH with I34M, E56G, F60Y, T65K, V106D
VL: B1 VL
notes: as the heavy chain of m17 (gHC); as the light chain of m7; source: HEK293T cells, expressed
B3: 2A10 gAb with light chain L114F (antibody, V domains shown)
VH: B1 VH with I34M, I54N, E56G, F60Y, T65K, V106D
VL: B1 VL with F49Y, T53S, Y55H, R93K, V97T
notes: as the heavy chain of m17 (gHC); as the light chain of m17 (gLC); source: HEK293T cells, expressed
B4: hybrid antibody: 2A10 light chain (mLC) paired with germline heavy chain (gHC) (antibody, V domains shown)
VH: B1 VH with I34M, I54N, E56G, F60Y, T65K, V106D
VL: B1 VL
notes: as the heavy chain of m17 (gHC); as the light chain of m7; also called mLC + gHC; source: HEK293T cells, expressed
B5: 2A10 gAb with light chain H68Y (antibody, V domains shown)
VH: B1 VH with I34M, I54N, E56G, F60Y, T65K, V106D
VL: B1 VL with F49Y, T53S, R93K, F94L, V97T
notes: as for B3
B6: predicted germline precursor to the 2A10 antibody (2A10 gAb) (antibody, V domains shown)
VH: B1 VH with I34M, I54N, E56G, F60Y, T65K, V106D
VL: B1 VL with F49Y, T53S, Y55H, R93K, F94L, V97T
notes: predicted germline heavy chain (gHC) of 2A10 by V-quest; the 2A10 heavy chain carries 6 mutations against it; predicted germline light chain (gLC) of 2A10 by V-quest; the 2A10 light chain carries 7 mutations against it; also called gHC + gLC; source: HEK293T cells, expressed
B7: hybrid antibody mLC + gHC with heavy chain M39I (antibody, V domains shown)
VH: B1 VH with I54N, E56G, F60Y, T65K, V106D
VL: B1 VL
notes: as for B2
B8: 2A10 gAb with light chain L114F and T117V (antibody, V domains shown)
VH: B1 VH with I34M, I54N, E56G, F60Y, T65K, V106D
VL: B1 VL with F49Y, T53S, Y55H, R93K
notes: as the heavy chain of m17 (gHC); as the light chain of m17 (gLC); also called L114F and T117V introduced simultaneously; source: HEK293T cells, expressed
B9: recombinant antibody corresponding to the 2A10 mAb (antibody, V domains shown)
VH: B1 VH
VL: B1 VL
notes: 2A10 heavy chain (mHC), as the heavy chain of m1; FAB part in the deposited structures; 2A10 light chain (mLC), as the light chain of m1; in the deposited structures; also called mHC + mLC; source: HEK293T cells, expressed
B10: hybrid antibody mLC + gHC with heavy chain T67F (antibody, V domains shown)
VH: B1 VH with I34M, I54N, E56G, T65K, V106D
VL: B1 VL
notes: as for B2
B11: 2A10 gAb with light chain T117V (antibody, V domains shown)
VH: B1 VH with I34M, I54N, E56G, F60Y, T65K, V106D
VL: B1 VL with F49Y, T53S, Y55H, R93K, F94L
notes: as for B3

Legend:
(NANP)6 peptide = target: T1, (NANP)6 peptide; assay: ITC; 25°C; titration of 2A10 FAB or complete 2A10 with antigen; independent binding sites model; single titration each; conditions: both partners purified
(NANP)9 peptide = target: T2, (NANP)9 peptide; assay: ELISA; recombinant 2A10, germline precursor, hybrids and their point mutants tested on the (NANP)9 peptide; details in S1 Methods

Binder | binding result ((NANP)9 peptide) | also measured
B1 | – | Ka ((NANP)6 peptide): 2.37e+06 M⁻¹; Kd ((NANP)6 peptide): 420 nM; dH ((NANP)6 peptide): -113 kJ/mol complex; stoichiometry N ((NANP)6 peptide): 2.16 FAB per Ag
B2 | binds | –
B3 | binds | –
B4 | binds | –
B5 | binds | –
B6 | binds | –
B7 | binds | –
B8 | binds | –
B9 | binds | –
B10 | binds | –
B11 | binds | –
